Experiment [1] has as its target recombinant inter-α-inhibitor heavy chain 1 (rHC1), wild type (human) (UniProt P19827). Nature of the experiment: SPR; 1,500 RU rHC1 proteins immobilised on a C1 chip by amide cross-linking; ligand as analyte; HEPES-buffered saline pH 7.5, 0.05% Tween 20, 10 mM EDTA; 50 μl/min; multicycle kinetics, 1:1 Langmuir. Background: In SPR one partner is held on a chip, and binding of the other changes the refractive index at the surface.

For experiment [2] the target is unchanged. Kind of experiment: SPR; 1,500 RU rHC1 proteins immobilised on a C1 chip by amide cross-linking; ligand as analyte; HEPES-buffered saline pH 7.5, 0.05% Tween 20, 2 mM Mg2+, 2 mM Mn2+; 50 μl/min; multicycle kinetics, 1:1 Langmuir.
Experiment [3] deals with recombinant inter-α-inhibitor heavy chain 1 (rHC1), D298A MIDAS mutant (human) (UniProt P19827). The description is as above.
In another experiment the target is complement C3 (human). Nature of the experiment: SPR; ~2,000 RU C3 immobilised on a CM5 chip by amide coupling; rHC1 or IαI as analyte; HEPES-buffered saline pH 7.5, 0.05% Tween 20, 2 mM Mg2+, 2 mM Mn2+; multicycle kinetics, 1:1 Langmuir.

As usually defined, the Kd is the equilibrium constant for the complex coming apart.

Chain of recombinant inter-α-inhibitor heavy chain 1 (rHC1), wild type (human) (P19827 35-672): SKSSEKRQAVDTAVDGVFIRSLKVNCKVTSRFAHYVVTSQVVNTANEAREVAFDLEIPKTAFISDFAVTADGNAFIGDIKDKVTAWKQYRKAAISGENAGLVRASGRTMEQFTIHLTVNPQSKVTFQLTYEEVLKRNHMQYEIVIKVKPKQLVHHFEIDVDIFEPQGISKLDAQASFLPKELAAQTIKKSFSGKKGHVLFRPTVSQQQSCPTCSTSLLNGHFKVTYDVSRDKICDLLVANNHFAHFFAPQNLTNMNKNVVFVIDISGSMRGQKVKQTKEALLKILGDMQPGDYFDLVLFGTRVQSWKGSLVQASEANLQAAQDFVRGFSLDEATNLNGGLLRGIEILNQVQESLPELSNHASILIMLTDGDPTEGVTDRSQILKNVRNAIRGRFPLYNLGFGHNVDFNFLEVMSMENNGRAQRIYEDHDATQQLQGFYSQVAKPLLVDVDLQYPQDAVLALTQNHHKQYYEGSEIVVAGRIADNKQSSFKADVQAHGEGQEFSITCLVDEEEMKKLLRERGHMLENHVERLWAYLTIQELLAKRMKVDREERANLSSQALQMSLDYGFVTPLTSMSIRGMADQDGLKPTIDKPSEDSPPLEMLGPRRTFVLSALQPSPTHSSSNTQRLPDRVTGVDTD
Chain of LTBP1 N-terminal region (NT1), recombinant domain (domain or fragment) (Q14766 24-1721): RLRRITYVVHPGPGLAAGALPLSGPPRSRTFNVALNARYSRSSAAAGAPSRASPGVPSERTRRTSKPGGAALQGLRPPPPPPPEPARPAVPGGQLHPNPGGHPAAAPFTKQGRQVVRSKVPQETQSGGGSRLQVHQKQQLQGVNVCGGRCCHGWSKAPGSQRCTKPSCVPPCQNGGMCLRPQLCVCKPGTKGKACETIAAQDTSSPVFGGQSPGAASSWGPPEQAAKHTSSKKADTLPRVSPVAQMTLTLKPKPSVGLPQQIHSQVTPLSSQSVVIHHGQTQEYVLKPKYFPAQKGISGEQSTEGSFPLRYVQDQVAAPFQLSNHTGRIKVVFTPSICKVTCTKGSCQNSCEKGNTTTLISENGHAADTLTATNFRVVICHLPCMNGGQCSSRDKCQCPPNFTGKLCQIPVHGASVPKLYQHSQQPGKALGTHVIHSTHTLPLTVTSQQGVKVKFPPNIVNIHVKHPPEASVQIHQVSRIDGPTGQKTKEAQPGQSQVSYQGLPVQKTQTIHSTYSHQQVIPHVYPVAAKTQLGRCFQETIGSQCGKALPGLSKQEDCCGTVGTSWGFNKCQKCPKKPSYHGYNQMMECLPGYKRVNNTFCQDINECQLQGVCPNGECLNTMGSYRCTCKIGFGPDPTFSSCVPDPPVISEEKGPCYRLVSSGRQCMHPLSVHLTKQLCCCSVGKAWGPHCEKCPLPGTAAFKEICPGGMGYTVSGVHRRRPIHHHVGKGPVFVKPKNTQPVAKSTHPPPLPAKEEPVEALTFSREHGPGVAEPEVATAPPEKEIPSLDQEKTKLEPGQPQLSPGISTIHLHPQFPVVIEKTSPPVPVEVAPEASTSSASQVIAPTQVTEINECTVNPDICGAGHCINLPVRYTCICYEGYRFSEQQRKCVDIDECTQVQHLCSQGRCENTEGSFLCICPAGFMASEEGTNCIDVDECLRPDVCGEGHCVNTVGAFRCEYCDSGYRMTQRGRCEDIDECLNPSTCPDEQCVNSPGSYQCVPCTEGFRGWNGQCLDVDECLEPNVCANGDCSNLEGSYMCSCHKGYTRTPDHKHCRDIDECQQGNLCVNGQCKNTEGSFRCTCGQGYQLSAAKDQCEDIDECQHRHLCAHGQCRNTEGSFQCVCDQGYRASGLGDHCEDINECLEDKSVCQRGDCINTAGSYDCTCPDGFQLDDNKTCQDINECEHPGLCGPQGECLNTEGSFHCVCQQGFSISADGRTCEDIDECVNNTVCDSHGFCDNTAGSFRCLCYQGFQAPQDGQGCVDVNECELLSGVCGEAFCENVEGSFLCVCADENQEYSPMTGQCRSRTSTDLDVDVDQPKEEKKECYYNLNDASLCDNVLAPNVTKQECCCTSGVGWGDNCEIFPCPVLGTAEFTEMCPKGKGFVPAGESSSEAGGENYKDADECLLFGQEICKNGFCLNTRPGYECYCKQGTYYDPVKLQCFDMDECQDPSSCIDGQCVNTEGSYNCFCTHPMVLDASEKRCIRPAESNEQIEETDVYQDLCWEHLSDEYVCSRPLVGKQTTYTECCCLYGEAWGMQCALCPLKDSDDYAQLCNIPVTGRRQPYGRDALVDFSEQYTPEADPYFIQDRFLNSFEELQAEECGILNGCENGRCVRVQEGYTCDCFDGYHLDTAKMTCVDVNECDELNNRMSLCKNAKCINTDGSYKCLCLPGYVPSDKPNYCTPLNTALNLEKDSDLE
Chain of recombinant inter-α-inhibitor heavy chain 1 (rHC1), D298A MIDAS mutant (human) (P19827 35-672 D298A): as the sequence (P19827 35-672) above, with D264A counted along it

On to “LTBP1 N-terminal region (NT1), recombinant domain (domain or fragment)”, for which the Kd in experiment [1] stood at 5.1 nM; in experiment [2], 4.6 nM.

As for “TGFβ1-LAP, small latent complex of TGFβ1 (from UniProt P01137 30-278)”, the figures for the Kd in experiment [2] and in experiment [3] were 16.1 nM and 14.9 nM, respectively.

In the experiment with complement C3 (human), “inter-α-inhibitor (IαI) (from UniProt P19827 35-672; P19823 55-702) (complex)” gave a Kd of 659 nM.

For the origin of these results see paper PMC7170535.
